# Measured values from the supplement of paper PMC9112550, “Optimization of the antimicrobial peptide Bac7 by deep mutational scanning” (BMC Biology, 2022).
# Tested on: Escherichia coli TOP10
# Experiment: shrunken log2 fold change of peptide-encoding DNA abundance (4.5 h post-induction vs induction); higher = less antimicrobial activity (less host growth inhibition)
# Conditions: time post-induction: 4.5 h; library: site-saturation at positions 5, 18, 19, 20
# 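Further: peptides expressed intracellularly from a pBAD plasmid library in pooled LB shake-flask culture, induced with 0.3% L-arabinose, DNA abundance read by NGS, three biological replicates, DESeq2 with apeglm shrinkage.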
row,Sequence,shrunken log2 fold change
1,RRIRRRPPRLPRPRPRPIDRPRP,-0.0459
2,RRIRMRPPRLPRPRPRPFNWPRP,-0.0926
3,RRIRWRPPRLPRPRPRPITEPRP,-0.355
4,RRIRVRPPRLPRPRPRPVTMPRP,-0.196
5,RRIRTRPPRLPRPRPRPRCMPRP,-0.288
6,RRIRTRPPRLPRPRPRPGAEPRP,0.25
7,RRIRFRPPRLPRPRPRPHTTPRP,-0.155
8,RRIRQRPPRLPRPRPRPKETPRP,0.00762
9,RRIRKRPPRLPRPRPRPTKRPRP,0.697
10,RRIRMRPPRLPRPRPRPYLDPRP,0.107
11,RRIRMRPPRLPRPRPRPHPAPRP,0.903
12,RRIRMRPPRLPRPRPRPTHSPRP,0.483
13,RRIRSRPPRLPRPRPRPKVEPRP,0.213
14,RRIRMRPPRLPRPRPRPRNFPRP,1.12
15,RRIRCRPPRLPRPRPRPMFCPRP,-0.237
16,RRIRDRPPRLPRPRPRPFFLPRP,-0.261
17,RRIRARPPRLPRPRPRPHTGPRP,-0.365
18,RRIRCRPPRLPRPRPRPQWAPRP,0.0425
19,RRIRERPPRLPRPRPRPDGFPRP,-0.134
20,RRIRDRPPRLPRPRPRPVFFPRP,0.208
21,RRIRQRPPRLPRPRPRPVYHPRP,-0.83
22,RRIRCRPPRLPRPRPRPYCNPRP,-1.19

row,Sequence,shrunken log2 fold change
1,RRIRHRPPRLPRPRPRPQLYPRP,-0.238
2,RRIRWRPPRLPRPRPRPEDHPRP,0.304
3,RRIRCRPPRLPRPRPRPTLNPRP,-0.232
4,RRIRFRPPRLPRPRPRPVYDPRP,-0.977
5,RRIRLRPPRLPRPRPRPHNSPRP,-0.492
6,RRIRMRPPRLPRPRPRPDFTPRP,0.463
7,RRIRRRPPRLPRPRPRPPNVPRP,0.115
8,RRIRDRPPRLPRPRPRPPDYPRP,-0.0704
9,RRIRQRPPRLPRPRPRPKWKPRP,-0.0193
10,RRIRIRPPRLPRPRPRPNQTPRP,-0.00271
11,RRIRRRPPRLPRPRPRPVEMPRP,0.483
12,RRIRHRPPRLPRPRPRPMMVPRP,-0.0274
13,RRIRRRPPRLPRPRPRPYDDPRP,-0.577
14,RRIRFRPPRLPRPRPRPRATPRP,0.691
15,RRIRCRPPRLPRPRPRPPHFPRP,0.872
16,RRIRARPPRLPRPRPRPYQFPRP,-0.34
17,RRIRERPPRLPRPRPRPTCIPRP,-0.23
18,RRIRCRPPRLPRPRPRPWHMPRP,-0.119
19,RRIRERPPRLPRPRPRPHNMPRP,-0.51
20,RRIRDRPPRLPRPRPRPTKTPRP,-0.014
21,RRIRLRPPRLPRPRPRPDIKPRP,-0.145
22,RRIRFRPPRLPRPRPRPYPPPRP,-0.665

row,Sequence,shrunken log2 fold change
1,RRIRHRPPRLPRPRPRPLCVPRP,2.97
2,RRIRYRPPRLPRPRPRPFGVPRP,-0.306
3,RRIRGRPPRLPRPRPRPADTPRP,0.0689
4,RRIRGRPPRLPRPRPRPLDMPRP,0.441
5,RRIRYRPPRLPRPRPRPHLIPRP,-0.103
6,RRIRWRPPRLPRPRPRPYVMPRP,-0.511
7,RRIRERPPRLPRPRPRPKTAPRP,-0.0233
8,RRIRRRPPRLPRPRPRPIMTPRP,0.125
9,RRIRCRPPRLPRPRPRPIKGPRP,-0.0586
10,RRIRDRPPRLPRPRPRPEHAPRP,0.294
11,RRIRQRPPRLPRPRPRPPSGPRP,0.352
12,RRIRVRPPRLPRPRPRPWMDPRP,0.0171
13,RRIRGRPPRLPRPRPRPRYEPRP,0.409
14,RRIRRRPPRLPRPRPRPAKMPRP,0.113
15,RRIRMRPPRLPRPRPRPHNPPRP,-0.329
16,RRIRERPPRLPRPRPRPDLTPRP,0.0375
17,RRIRLRPPRLPRPRPRPSLYPRP,-0.431
18,RRIRVRPPRLPRPRPRPRHTPRP,0.226
19,RRIRQRPPRLPRPRPRPEVPPRP,-0.00133
20,RRIRCRPPRLPRPRPRPCCAPRP,0.242
21,RRIRVRPPRLPRPRPRPAWYPRP,0.0171
22,RRIRARPPRLPRPRPRPQTYPRP,0.00151

row,Sequence,shrunken log2 fold change
1,RRIRHRPPRLPRPRPRPEFKPRP,0.0348
2,RRIRKRPPRLPRPRPRPGDKPRP,0.0976
3,RRIRSRPPRLPRPRPRPPYQPRP,0.144
4,RRIRYRPPRLPRPRPRPYANPRP,-0.474
5,RRIRPRPPRLPRPRPRPEEHPRP,-0.0242
6,RRIRARPPRLPRPRPRPQCNPRP,-0.104
7,RRIRLRPPRLPRPRPRPEYSPRP,-0.279
8,RRIRSRPPRLPRPRPRPDKTPRP,0.178
9,RRIRNRPPRLPRPRPRPCWGPRP,-0.315
10,RRIRYRPPRLPRPRPRPCHCPRP,-0.0269
11,RRIRMRPPRLPRPRPRPHEDPRP,0.465
12,RRIRGRPPRLPRPRPRPTWDPRP,1.01
13,RRIRIRPPRLPRPRPRPTFLPRP,-0.679
14,RRIRTRPPRLPRPRPRPHMGPRP,-0.00538
15,RRIRDRPPRLPRPRPRPRCHPRP,-0.0835
16,RRIRSRPPRLPRPRPRPDTEPRP,-0.0911
17,RRIRVRPPRLPRPRPRPNRGPRP,0.108
18,RRIRNRPPRLPRPRPRPLLPPRP,0.0144
19,RRIRCRPPRLPRPRPRPDFKPRP,-0.219
20,RRIRWRPPRLPRPRPRPIKGPRP,-0.197
21,RRIRLRPPRLPRPRPRPYKKPRP,-0.404
22,RRIRWRPPRLPRPRPRPCIQPRP,-0.394

row,Sequence,shrunken log2 fold change
1,RRIRTRPPRLPRPRPRPLQNPRP,0.163
2,RRIRVRPPRLPRPRPRPRLEPRP,0.138
3,RRIRKRPPRLPRPRPRPWGNPRP,-0.0638
4,RRIRYRPPRLPRPRPRPNQQPRP,-0.0105
5,RRIRHRPPRLPRPRPRPPNRPRP,-0.0966
6,RRIRQRPPRLPRPRPRPSRMPRP,-0.34
7,RRIRNRPPRLPRPRPRPVFEPRP,0.07
8,RRIRVRPPRLPRPRPRPCNPPRP,-0.182
9,RRIRMRPPRLPRPRPRPQNRPRP,-0.0361
10,RRIRYRPPRLPRPRPRPELAPRP,-0.0264
11,RRIRSRPPRLPRPRPRPNHDPRP,-0.69
12,RRIRSRPPRLPRPRPRPGLIPRP,0.142
13,RRIRERPPRLPRPRPRPATCPRP,-0.292
14,RRIRPRPPRLPRPRPRPLRQPRP,0.0954
15,RRIRLRPPRLPRPRPRPCFAPRP,0.179
16,RRIRSRPPRLPRPRPRPICKPRP,-0.494
17,RRIRCRPPRLPRPRPRPTGNPRP,0.048
18,RRIRMRPPRLPRPRPRPTNVPRP,-0.0668
19,RRIRLRPPRLPRPRPRPYHCPRP,-0.575
20,RRIRERPPRLPRPRPRPAIHPRP,0.125
21,RRIRVRPPRLPRPRPRPREAPRP,0.0545
